Data: the Human Domainome abundance scans (Beltran et al. 2025)
± gives the uncertainty stated by the source.

B1: Histone-lysine N-methyltransferase 2A, residues 1148 to 1194; numbered along this chain, Q03164 (parent)
chain: KGRRSRRCGQCPGCQVPEDCGVCTNCLDKPKFGGRNIKKQCCKMRKC

Variants of: B1
Test: abundance fitness (aPCA) (normalised: wild type 0, dead -1); higher = more abundant; growth selection in yeast, the domain comes from the species named
Settings: Homo sapiens
With KGRRSRRCGQCPGCQVPEDCGVCTNCLDKPKEGGRNIKKQCCKMRKC [F32E] the abundance fitness was 0.186 ± 0.17.
KGRRSRRCGQCPGCQVPEDCGVCTNCLDKPKHGGRNIKKQCCKMRKC [F32H] gave an abundance fitness of -0.091 ± 0.078.
For KGRRSRRCGQCPGCQVPEDCGVCTNCLDKPKTGGRNIKKQCCKMRKC [F32T], the abundance fitness was -0.272 ± 0.087.
Variant KGRRSRRCGQCPGCQVPEDCGVCTNCLDKPKYGGRNIKKQCCKMRKC [F32Y] has an abundance fitness of -0.068 ± 0.087.
Work on KGRRSRRCGQCPGCQVPEDCGVCTNCLDKPKAGGRNIKKQCCKMRKC [F32A] yielded an abundance fitness of -0.013 ± 0.092.
In the case of KGRRSRRCGQCPGCQVPEDCGVCTNCLDKPKKGGRNIKKQCCKMRKC [F32K], the abundance fitness is reported as -0.39 ± 0.13.
KGRRSRRCGQCPGCQVPEDCGVCTNCLDKPKRGGRNIKKQCCKMRKC [F32R] gave an abundance fitness of -0.496 ± 0.094.
With KGRRSRRCGQCPGCQVPEDCGVCTNCLDKPKLGGRNIKKQCCKMRKC [F32L] the abundance fitness was -0.327 ± 0.075.
In the case of KGRRSRRCGQCPGCQVPEDCGVCTNCLDKPKFGGVNIKKQCCKMRKC [R35V], the abundance fitness is reported as -0.089 ± 0.074.
KGRRSRRCGQCPGCQVPEDCGVCTNCLDKPKFGGTNIKKQCCKMRKC [R35T] showed an abundance fitness of -0.016 ± 0.096.
Work on KGRRSRRCGQCPGCQVPEDCGVCTNCLDKPKFGGINIKKQCCKMRKC [R35I] yielded an abundance fitness of -0.438 ± 0.17.
KGRRSRRCGQCPGCQVPEDCGVCTNCLDKPKFGGGNIKKQCCKMRKC [R35G] gave an abundance fitness of 0.022 ± 0.075.
KGRRSRRCGQCPGCQVPEDCGVCTNCLDKPKFGGKNIKKQCCKMRKC [R35K] showed an abundance fitness of 0.19 ± 0.12.
For KGRRSRRCGQCPGCQVPEDCGVCTNCLDKPKFGGQNIKKQCCKMRKC [R35Q], the abundance fitness was 0.065 ± 0.12.
With KGRRSRRCGQCPGCQVPEDCGVCTNCLDKPKFGGFNIKKQCCKMRKC [R35F] the abundance fitness was -0.043 ± 0.13.
Variant KGRRSRRCGQCPGCQVPEDCGVCTNCLDKPKFGGWNIKKQCCKMRKC [R35W] has an abundance fitness of -0.524 ± 0.14.
KGRRSRRCGQCPGCQVPEDCGVCTNCLDKPKFGGCNIKKQCCKMRKC [R35C] gave an abundance fitness of -0.229 ± 0.14.
For KGRRSRRCGQCPGCQVPEDCGVCTNCLDKPKFGGMNIKKQCCKMRKC [R35M], the abundance fitness was 0.143 ± 0.1.
With KGRRSRRCGQCPGCQVPEDCGVCTNCLDKPKFGGANIKKQCCKMRKC [R35A] the abundance fitness was 0.189 ± 0.084.
For KGRRSRRCGQCPGCQVPEDCGVCTNCLDKPKFGGHNIKKQCCKMRKC [R35H], the abundance fitness was 0.128 ± 0.13.
With KGRRSRRCGQCPGCQVPEDCGVCTNCLDKPKFGGSNIKKQCCKMRKC [R35S] the abundance fitness was -0.01 ± 0.083.
KGRRSRRCGQCPGCQVPEDCGVCTNCLDKPKFGGYNIKKQCCKMRKC [R35Y] gave an abundance fitness of -0.036 ± 0.16.
In the case of KGRRSRRCGQCPGCQVPEDCGVCTNCLDKPKFGGNNIKKQCCKMRKC [R35N], the abundance fitness is reported as 0.343 ± 0.14.
Variant KGRRSRRCGQCPGCQVPEDCGVCTNCLDKPKFGGDNIKKQCCKMRKC [R35D] has an abundance fitness of 0.168 ± 0.1.
KGRRSRRCGQCPGCQVPEDCGVCTNCLDKPKFGGPNIKKQCCKMRKC [R35P] gave an abundance fitness of 0.075 ± 0.097.
With KGRRSRRCGQCPGCQVPEDCGVCTNCLDKPQFGGRNIKKQCCKMRKC [K31Q] the abundance fitness was -0.285 ± 0.11.
With KGRRSRRCGQCPGCQVPEDCGVCTNCLDKPMFGGRNIKKQCCKMRKC [K31M] the abundance fitness was -0.444 ± 0.1.
KGRRSRRCGQCPGCQVPEDCGVCTNCLDKPRFGGRNIKKQCCKMRKC [K31R] showed an abundance fitness of -0.311 ± 0.09.
KGRRSRRCGQCPGCQVPEDCGVCTNCLDKPFFGGRNIKKQCCKMRKC [K31F] showed an abundance fitness of -0.627 ± 0.088.
For KGRRSRRCGQCPGCQVPEDCGVCTNCLDKPWFGGRNIKKQCCKMRKC [K31W], the abundance fitness was -0.685 ± 0.13.
Variant KGRRSRRCGQCPGCQVPEDCGVCTNCLDKPYFGGRNIKKQCCKMRKC [K31Y] has an abundance fitness of -0.253 ± 0.086.
KGRRSRRCGQCPGCQVPEDCGVCTNCLDKPGFGGRNIKKQCCKMRKC [K31G] gave an abundance fitness of -0.319 ± 0.12.
Variant KGRRSRRCGQCPGCQVPEDCGVCTNCLDKPHFGGRNIKKQCCKMRKC [K31H] has an abundance fitness of -0.429 ± 0.093.
KGRRSRRCGQCPGCQVPEDCGVCTNCLDKPLFGGRNIKKQCCKMRKC [K31L] gave an abundance fitness of -0.316 ± 0.074.
With KGRRSRRCGQCPGCQVPEDCGVCTNCLDKPSFGGRNIKKQCCKMRKC [K31S] the abundance fitness was -0.404 ± 0.075.
Work on KGRRSRRCGQCPGCQVPEDCGVCTNCLDKPIFGGRNIKKQCCKMRKC [K31I] yielded an abundance fitness of -0.24 ± 0.084.
KGRRSRRCGQCPGCQVPEDCGVCTNCLDKPEFGGRNIKKQCCKMRKC [K31E] gave an abundance fitness of -0.271 ± 0.19.
Variant KGRRSRRCGQCPGCQVPEDCGVCTNCLDKPNFGGRNIKKQCCKMRKC [K31N] has an abundance fitness of -0.159 ± 0.096.
Work on KGRRSRRCGQCPGCQVPEDCGVCTNCLDKPPFGGRNIKKQCCKMRKC [K31P] yielded an abundance fitness of -0.227 ± 0.086.
In the case of KGRRSRRCGQCPGCQVPEDCGVCTNCLDKPAFGGRNIKKQCCKMRKC [K31A], the abundance fitness is reported as -0.195 ± 0.1.
KGRRSRRCGQCPGCQVPEDCGVCTNCLDKPTFGGRNIKKQCCKMRKC [K31T] gave an abundance fitness of -0.264 ± 0.082.
Work on KGRRSRRCGQCPGCQVPEDCGVCTNCLDKPKFWGRNIKKQCCKMRKC [G33W] yielded an abundance fitness of -0.853 ± 0.15.
Work on KGRRSRRCGQCPGCQVPEDCGVCTNCLDKPKFKGRNIKKQCCKMRKC [G33K] yielded an abundance fitness of -0.936 ± 0.16.
Variant KGRRSRRCGQCPGCQVPEDCGVCTNCLDKPKFPGRNIKKQCCKMRKC [G33P] has an abundance fitness of -0.707 ± 0.14.
In the case of KGRRSRRCGQCPGCQVPEDCGVCTNCLDKPKFQGRNIKKQCCKMRKC [G33Q], the abundance fitness is reported as -0.535 ± 0.13.
For KGRRSRRCGQCPGCQVPEDCGVCTNCLDKPKFNGRNIKKQCCKMRKC [G33N], the abundance fitness was -0.289 ± 0.16.
Variant KGRRSRRCGQCPGCQVPEDCGVCTNCLDKPKFMGRNIKKQCCKMRKC [G33M] has an abundance fitness of -0.494 ± 0.11.
Variant KGRRSRRCGQCPGCQVPEDCGVCTNCLDKPKFVGRNIKKQCCKMRKC [G33V] has an abundance fitness of -0.418 ± 0.085.
KGRRSRRCGQCPGCQVPEDCGVCTNCLDKPKFYGRNIKKQCCKMRKC [G33Y] showed an abundance fitness of -0.613 ± 0.24.
Work on KGRRSRRCGQCPGCQVPEDCGVCTNCLDKPKFAGRNIKKQCCKMRKC [G33A] yielded an abundance fitness of -0.394 ± 0.089.
KGRRSRRCGQCPGCQVPEDCGVCTNCLDKPKFFGRNIKKQCCKMRKC [G33F] gave an abundance fitness of -1.04 ± 0.23.
KGRRSRRCGQCPGCQVPEDCGVCTNCLDKPKFLGRNIKKQCCKMRKC [G33L] gave an abundance fitness of -0.631 ± 0.099.
Work on KGRRSRRCGQCPGCQVPEDCGVCTNCLDKPKFCGRNIKKQCCKMRKC [G33C] yielded an abundance fitness of -0.677 ± 0.16.
KGRRSRRCGQCPGCQVPEDCGVCTNCLDKPKFRGRNIKKQCCKMRKC [G33R] showed an abundance fitness of -0.783 ± 0.093.
For KGRRSRRCGQCPGCQVPEDCGVCTNCLDKPKFTGRNIKKQCCKMRKC [G33T], the abundance fitness was -0.526 ± 0.12.
